Three substances from paper PMC7920261 can be followed below.

By Kd is commonly meant the equilibrium constant for the complex coming apart. Read a low Kd as a tighter complex. One may read the IC50 as the concentration needed to halve the response being measured. A low value points to inhibition by little substance.

For assay [1], the target named is SARS-CoV-2 spike receptor-binding domain (RBD) (SARS-CoV-2) (UniProt P0DTC2). Put plainly: BLI.
Assay [2] has the same target. Description: ELISA. A general note: In an ELISA, binding on a coated surface is turned into a signal by an enzyme label.
Assay [3] concerns the target SARS-CoV-1 spike receptor-binding domain (RBD) (SARS-CoV-1). Put plainly: BLI. A general note: In BLI a coated tip is dipped into the sample, and binding shifts an interference pattern.

In assay [1], CTC-445, recombinant (designed binder) had a Kd of 357 nM. Also, the IC50 in assay [2] came out at 1700 nM.

“CTC-445.2, recombinant (designed binder)”: the Kd in assay [1] worked out at 21 nM; in assay [3], 7100 nM. The IC50 in assay [2] turned out to be 10.4 nM.

Regarding CTC-445.2d (designed binder), the Kd in assay [1] was 3.5 nM; in assay [3], 587 nM. This substance registered an IC50 in assay [2] of 0.7 nM.
